These results are taken from paper PMC10936626 (Autophagy, 2023).

The target of this assay is GST-tagged SRC, bacterially purified (human, UniProt P12931-1 1-536). As to the kind of experiment: pull-down.

B1: Flag-tagged MEF2D protein purified from HEK293T cells (natural protein, human, UniProt Q14814-1 1-521, looked up)
chain: MGRKKIQIQRITDERNRQVTFTKRKFGLMKKAYELSVLCDCEIALIIFNHSNKLFQYASTDMDKVLLKYTEYNEPHESRTNADIIETLRKKGFNGCDSPEPDGEDSLEQSPLLEDKYRRASEELDGLFRRYGSTVPAPNFAMPVTVPVSNQSSLQFSNPSGSLVTPSLVTSSLTDPRLLSPQQPALQRNSVSPGLPQRPASAGAMLGGDLNSANGACPSPVGNGYVSARASPGLLPVANGNSLNKVIPAKSPPPPTHSTQLGAPSRKPDLRVITSQAGKGLMHHLTEDHLDLNNAQRLGVSQSTHSLTTPVVSVATPSLLSQGLPFSSMPTAYNTDYQLTSAELSSLPAFSSPGGLSLGNVTAWQQPQQPQQPQQPQPPQQQPPQPQQPQPQQPQQPQQPPQQQSHLVPVSLSNLIPGSPLPHVGAALTVTTHPHISIKSEPVSPSRERSPAPPPPAVFPAARPEPGDGLSSPAGGSYETGDRDDGRGDFGPTLGLLRPAPEPEAEGSAVKRMRLDTWTLK
Turning to B1, the binding result was “binds”.
